Consider five molecules from publication PMC5737801 (Nucleic Acids Research, 2017).

Changes are numbered by the printed parent chain. In names and notes the source's numbering stands.

The data set “SEC” concerns the molecule itself. Nature of the data set: SEC. For orientation: Size exclusion chromatography separates by hydrodynamic size, large species first.
The data set “SAXS” concerns the molecule itself. The experiment in a line: SAXS.
Data set [1] deals with T1, GST-TyrRS fusion protein, wild type, full length (human, UniProt P54577 1-528).
T1 sequence: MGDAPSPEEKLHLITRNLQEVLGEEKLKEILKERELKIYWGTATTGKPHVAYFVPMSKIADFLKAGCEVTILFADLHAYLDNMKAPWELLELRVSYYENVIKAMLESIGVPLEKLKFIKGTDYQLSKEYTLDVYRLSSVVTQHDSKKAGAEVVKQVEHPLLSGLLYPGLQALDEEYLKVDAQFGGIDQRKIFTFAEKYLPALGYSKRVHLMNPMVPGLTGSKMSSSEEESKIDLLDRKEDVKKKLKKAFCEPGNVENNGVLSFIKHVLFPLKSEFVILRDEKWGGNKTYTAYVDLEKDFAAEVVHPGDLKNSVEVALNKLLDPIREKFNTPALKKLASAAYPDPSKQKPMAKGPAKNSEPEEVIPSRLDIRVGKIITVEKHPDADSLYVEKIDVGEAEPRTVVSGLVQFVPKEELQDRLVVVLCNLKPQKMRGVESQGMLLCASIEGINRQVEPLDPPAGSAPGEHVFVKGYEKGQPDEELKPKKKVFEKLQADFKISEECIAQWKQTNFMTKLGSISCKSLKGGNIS
Nature of the data set: BLI. In general terms: In BLI a coated tip is dipped into the sample, and binding shifts an interference pattern.

In data set [2] the target is T2, GST-TyrRS E196K fusion protein, full length (human, UniProt P54577 1-528, E196K).
T2 sequence: T1 sequence with E196K
The experiment in a line: BLI.

Data set [3] concerns the target T3, GST-TyrRS Δ153-156 fusion protein, full length (human, UniProt P54577 1-528, Δ153-156VKQV).
T3 sequence: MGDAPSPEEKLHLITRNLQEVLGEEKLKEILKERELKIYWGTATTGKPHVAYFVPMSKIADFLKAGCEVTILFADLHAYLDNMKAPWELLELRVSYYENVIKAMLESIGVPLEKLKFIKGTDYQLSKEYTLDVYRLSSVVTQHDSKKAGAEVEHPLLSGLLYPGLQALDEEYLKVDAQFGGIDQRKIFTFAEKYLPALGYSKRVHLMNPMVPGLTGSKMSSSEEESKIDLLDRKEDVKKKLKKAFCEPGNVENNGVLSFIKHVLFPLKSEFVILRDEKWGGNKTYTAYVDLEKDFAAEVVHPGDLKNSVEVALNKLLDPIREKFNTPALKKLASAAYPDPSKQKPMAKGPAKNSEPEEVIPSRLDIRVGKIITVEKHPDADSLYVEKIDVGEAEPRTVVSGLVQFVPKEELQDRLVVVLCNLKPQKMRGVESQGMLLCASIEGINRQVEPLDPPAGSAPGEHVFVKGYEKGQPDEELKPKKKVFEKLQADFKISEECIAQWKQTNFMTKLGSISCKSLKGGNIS
Nature of the data set: BLI.

B1: full-length tyrosyl-tRNA synthetase Δ153-156 deletion mutant (TyrRS^Δ153-156), C-terminal hexahistidine tag (enzyme)
chain: T3 sequence
Usually Kd stands for a measure of binding affinity in units of concentration. Low values mean tighter binding, high ones weaker binding. B1 registered a Kd in the data set “SEC” of approximately 200 nM.

B2: full-length tyrosyl-tRNA synthetase G41R mutant (TyrRS^G41R), C-terminal hexahistidine tag (enzyme)
chain: T1 sequence with G41R
As a reminder, the stoichiometry N is a count of units in the complex or per binding partner. Molecule B2 returned a Kd in the data set “SEC” of approximately 200 nM. In addition, the “stoichiometry N” value in the data set “SAXS” stood at 2.

B3: full-length tyrosyl-tRNA synthetase, wild type (TyrRS^WT), C-terminal hexahistidine tag (enzyme)
chain: T1 sequence
For the molecule B3, in the data set “SEC”, the equilibrium dissociation constant (Kd) is approximately 200 nM.

B4: full-length tyrosyl-tRNA synthetase E196K mutant (TyrRS^E196K), C-terminal hexahistidine tag (enzyme)
chain: T1 sequence with E196K
B4: the “stoichiometry N” value in the data set “SAXS” amounted to 2.

B5: RBCC (aa 65–378 of TRIM28) (domain or fragment)
chain: CGVCRERLRPEREPRLLPCLHSACSACLGPAAPAAANSSGDGGAAGDGTVVDCPVCKQQCFSKDIVENYFMRDSGSKAATDAQDANQCCTSCEDNAPATSYCVECSEPLCETCVEAHQRVKYTKDHTVRSTGPAKSRDGERTVYCNVHKHEPLVLFCESCDTLTCRDCQLNAHKDHQYQFLEDAVRNQRKLLASLVKRLGDKHATLQKSTKEVRSSIRQVSDVQKRVQVDVKMAILQIMKELNKRGRVLVNDAQKVTEGQQERLERQHWTMTKIQKHQEHILRFASWALESDNNTALLLSKKLIYFQLHRALKM
Take B5: the binding result in data set [1] is “binds”. The “fold increase in binding affinity against TyrRS^WT” value in data set [2] and in data set [3] was 5 fold throughout.
